In publication PMC7463755, “C7-Prenylation of Tryptophan-Containing Cyclic Dipeptides by 7-Dimethylallyl Tryptophan Synthase Significantly Increases the Anticancer and Antimicrobial Activities” (Molecules, 2020):

Columns and labels:
Assay in all cases: HPLC product formation, Michaelis-Menten
Assay type in all cases: biochemical, Aspergillus fumigatus
[1] = substrate: [H][C@@]12CCCN1C(=O)[C@H](Cc1c[nH]c3ccccc13)NC2=O; conditions: 2 mM DMAPP, 5 mM CaCl2, 37 °C, prenyl acceptor
From the text: (§1) HPLC product formation, Michaelis-Menten on 7-DMATS (7-dimethylallyl tryptophan synthase)

[2] = substrate: O=C1CNC(=O)[C@H](Cc2c[nH]c3ccccc23)N1; conditions: 2 mM DMAPP, 5 mM CaCl2, 37 °C, prenyl acceptor
From the text: as §1

[3] = substrate: O=C1N[C@@H](Cc2c[nH]c3ccccc23)C(=O)N[C@H]1Cc1ccc(O)cc1; conditions: 2 mM DMAPP, 5 mM CaCl2, 37 °C, prenyl acceptor
From the text: as §1

[4] = substrate: CC(C)=CCOP(=O)(O)OP(=O)(O)O; conditions: 1 mM 1a (cyclo-L-Trp-Gly), 5 mM CaCl2, 37 °C, prenyl donor
From the text: as §1

[5] = substrate: CC(C)C[C@@H]1NC(=O)[C@H](Cc2c[nH]c3ccccc23)NC1=O; conditions: 2 mM DMAPP, 5 mM CaCl2, 37 °C, prenyl acceptor
From the text: as §1

[6] = substrate: O=C1N[C@@H](Cc2c[nH]c3ccccc23)C(=O)N[C@H]1Cc1c[nH]c2ccccc12; conditions: 2 mM DMAPP, 5 mM CaCl2, 37 °C, prenyl acceptor
From the text: as §1

[7] = substrate: C[C@@H]1NC(=O)[C@H](Cc2c[nH]c3ccccc23)NC1=O; conditions: 2 mM DMAPP, 5 mM CaCl2, 37 °C, prenyl acceptor
From the text: as §1

[8] = substrate: O=C1N[C@@H](Cc2c[nH]c3ccccc23)C(=O)N[C@H]1Cc1ccccc1; conditions: 2 mM DMAPP, 5 mM CaCl2, 37 °C, prenyl acceptor
From the text: as §1

B1: 7-DMATS (7-dimethylallyl tryptophan synthase) (Aspergillus fumigatus Af293) (protein)
chain: MSIGAEIDSLVPAPPGLNGTAAGYPAKTQKELSNGDFDAHDGLSLAQLTPYDVLTAALPLPAPASSTGFWWRETGPVMSKLLAKANYPLYTHYKYLMLYHTHILPLLGPRPPLENSTHPSPSNAPWRSFLTDDFTPLEPSWNVNGNSEAQSTIRLGIEPIGFEAGAAADPFNQAAVTQFMHSYEATEVGATLTLFEHFRNDMFVGPETYAALRAKIPEGEHTTQSFLAFDLDAGRVTTKAYFFPILMSLKTGQSTTKVVSDSILHLALKSEVWGVQTIAAMSVMEAWIGSYGGAAKTEMISVDCVNEADSRIKIYVRMPHTSLRKVKEAYCLGGRLTDENTKEGLKLLDELWRTVFGIDDEDAELPQNSHRTAGTIFNFELRPGKWFPEPKVYLPVRHYCESDMQIASRLQTFFGRLGWHNMEKDYCKHLEDLFPHHPLSSSTGTHTFLSFSYKKQKGVYMTMYYNLRVYST
notes: recombinant, overproduced in E. coli and purified as in Kremer et al; vector pQE60 named
For B1, the Km [1] was 880.1 µM, the Vmax [1] was 0.0228 µM/min and the kcat [1] was 0.0205 s⁻¹. For the same protein, the kcat/Km [1] was 23.3 M⁻¹ s⁻¹, the Km [2] was 169.7 µM and the Vmax [2] was 0.145 µM/min. The kcat [2] was 0.131 s⁻¹, the kcat/Km [2] was 770 M⁻¹ s⁻¹ and the Km [3] was 562.4 µM. The Vmax [3] was 0.0515 µM/min, the kcat [3] was 0.0464 s⁻¹ and the kcat/Km [3] was 82.4 M⁻¹ s⁻¹. The Km [4] was 79.6 µM, the Vmax [4] was 0.072 µM/min and the kcat [4] was 0.0693 s⁻¹. For the same protein, the kcat/Km [4] was 871 M⁻¹ s⁻¹, the Km [5] was 823.2 µM and the Vmax [5] was 0.0654 µM/min. It also gave a kcat [5] of 0.0586 s⁻¹, a kcat/Km [5] of 71.2 M⁻¹ s⁻¹ and a Km [6] of 225.8 µM. It also gave a Vmax [6] of 0.0459 µM/min, a kcat [6] of 0.0413 s⁻¹ and a kcat/Km [6] of 183 M⁻¹ s⁻¹. It also gave a Km [7] of 867.8 µM, a Vmax [7] of 0.0141 µM/min and a kcat [7] of 0.0127 s⁻¹. It also gave a kcat/Km [7] of 14.6 M⁻¹ s⁻¹, a Km [8] of 102.9 µM and a Vmax [8] of 0.0359 µM/min. For the same protein, the kcat [8] was 0.0323 s⁻¹ and the kcat/Km [8] was 314 M⁻¹ s⁻¹.
